Assay results published in US6133431.
Residue numbers refer to the chain shown, from its start. Blank lines part the entries; values can stand above or below the binder they belong to.

Tests used:
[1] = target: thermally coagulated immunoglobulin complexes; assay: batch adsorption from human serum with 20 µg/ml Model IC, peptide on GCL2000m gel (2.6 mg/ml), not sterilised, C1q-CIC enzyme immunoassay
IgG in human serum [2] = assay: batch adsorption from human serum with 20 µg/ml Model IC, peptide on GCL2000m gel (2.6 mg/ml), not sterilised, N-Assay TIA kit
[3] = target: thermally coagulated immunoglobulin complexes; assay: batch adsorption from human serum with 20 µg/ml Model IC, peptide on GC700m gel (4.0 mg/ml), not sterilised, C1q-CIC enzyme immunoassay
IgG in human serum [4] = assay: batch adsorption from human serum with 20 µg/ml Model IC, peptide on GC700m gel (4.0 mg/ml), not sterilised, N-Assay TIA kit
[5] = target: thermally coagulated immunoglobulin complexes; assay: batch adsorption from human serum with 20 µg/ml Model IC, peptide on GCL2000m gel (2.1 mg/ml), 37 °C 2 h, not sterilised, C1q-CIC enzyme immunoassay
IgG in human serum [6] = assay: batch adsorption from human serum with 20 µg/ml Model IC, peptide on GCL2000m gel (2.1 mg/ml), 37 °C 2 h, not sterilised, N-Assay TIA kit
[7] = target: thermally coagulated immunoglobulin complexes; assay: batch adsorption from human serum with 20 µg/ml Model IC, peptide on AF-Torecyl Toyopearl 650 (3.6 mg/ml), not sterilised, C1q-CIC enzyme immunoassay
IgG in human serum [8] = assay: batch adsorption from human serum with 20 µg/ml Model IC, peptide on AF-Torecyl Toyopearl 650 (3.6 mg/ml), not sterilised, N-Assay TIA kit
IgG in human serum [9] = assay: batch adsorption from human serum with 20 µg/ml Model IC, peptide on GCL2000m gel (2.5 mg/ml), not sterilised, N-Assay TIA kit
[10] = target: thermally coagulated immunoglobulin complexes; assay: batch adsorption from human serum with 20 µg/ml Model IC, peptide on GCL2000m gel (2.5 mg/ml), not sterilised, C1q-CIC enzyme immunoassay
[11] = target: IgG2 subclass in human serum; assay: batch adsorption from the serum of a healthy subject, peptide on Thiopropyl Sepharose 6B (0.8 mg/ml), supernatant by immune diffusion (SRID)
[12] = target: IgG1 subclass in human serum; assay: as above
[13] = target: IgG4 subclass in human serum; assay: as above
[14] = target: IgG3 subclass in human serum; assay: as above
IgM in human serum = assay: batch adsorption from the serum of a healthy subject, peptide on Thiopropyl Sepharose 6B (0.8 mg/ml), 37 °C 2 h, supernatant by N-Assay TIA kit
IgG in human serum [15] = assay: as above
[16] = target: thermally coagulated immunoglobulin complexes; assay: batch adsorption from healthy human serum with 20 µg/ml thermally coagulated complexes, peptide on Thiopropyl Sepharose 6B (0.8 mg/ml), 37 °C 2 h, supernatant by C1q-CIC kit
[17] = target: circulating immune complexes in the serum of a patient suffering from rheumatism; assay: batch adsorption from the serum of a patient suffering from rheumatism, peptide on Thiopropyl Sepharose 6B (0.8 mg/ml), 37 °C 2 h, supernatant by C1q-CIC kit
IgG in human serum [18] = assay: batch adsorption from human serum with 20 µg/ml Model IC, peptide on GC700m gel (2.6 mg/ml), not sterilised, N-Assay TIA kit
[19] = target: thermally coagulated immunoglobulin complexes; assay: batch adsorption from human serum with 20 µg/ml Model IC, peptide on GC700m gel (2.6 mg/ml), not sterilised, C1q-CIC enzyme immunoassay

B3: MK3P47 peptide (peptide)
peptide: MKKKTTYKLVINGKTLKGETTTKAVDAETAEKAFKQYANDNGVDGVWTYDPATKTFTVTE
IC adsorption ratio (%) [5]: 35%
IgG adsorption ratio (%) (IgG in human serum [6]): 85%

B4: MK3-7M peptide (peptide)
peptide: B3 peptide with V10I, I11L, E28A, A33V, V46E
IC adsorption ratio (%) [7]: 35%
IgG adsorption ratio (%) (IgG in human serum [8]): 75%

B5: MK3G56 peptide (peptide)
peptide: B3 peptide with P51D
IgG adsorption ratio (%) (IgG in human serum [9]): 70%
IC adsorption ratio (%) [10]: 30%

B7: MG56 peptide (peptide)
peptide: MTTYKLVINGKTLKGETTTKAVDAETAEKAFKQYANDNGVDGVWTYDDATKTFTVTE
IC adsorption ratio (%) [3]: 30%
IgG adsorption ratio (%) (IgG in human serum [4]): 65%

B8: MP47 peptide (peptide)
peptide: B7 peptide with D48P
IgG adsorption ratio (%) (IgG in human serum [18]): 60%
IC adsorption ratio (%) [19]: 35%

The next lines start with the values.

IC adsorption ratio (%) [1]: 35%
IgG adsorption ratio (%) (IgG in human serum [2]): 70%
B1: MP47K3 peptide (peptide)
peptide: MTTYKLVINGKTLKGETTTKAVDAETAEKAFKQYANDNGVDGVWTYDPATKTFTVTEKKK

IC adsorption ratio (%) [3]: 65%
IgG adsorption ratio (%) (IgG in human serum [4]): 90%
B2: MP47C peptide (peptide)
peptide: MTTYKLVINGKTLKGETTTKAVDAETAEKAFKQYANDNGVDGVWTYDPATKTFTVTEC

adsorption ratio of IgG subclasses (%) [11]: 78.9%
adsorption ratio of IgG subclasses (%) [12]: 93.2%
adsorption ratio of IgG subclasses (%) [13]: 65.7%
adsorption ratio of IgG subclasses (%) [14]: 63.2%
adsorption ratio of immunoglobulins (%) (IgM in human serum): 2.7%
adsorption ratio of immunoglobulins (%) (IgG in human serum [15]): 83.4%
adsorption ratio of thermally coagulated complexes (%) [16]: 41.7%
adsorption ratio of immune complexes (%) [17]: 29.3%
B6: peptide having a sequence consisting of 57 residues of domain C3 of protein G with cysteine added to an N-terminus (peptide)
peptide: B7 peptide with M1C
